These results are taken from US20210188980A1 (SHANGHAI EPIMAB BIOTHERAPEUTICS, published 2021).

Sequences and labels used below:
T1: human LAG-3 expressed on cells (human, UniProt P18627 23-525)
T1 sequence (looked up): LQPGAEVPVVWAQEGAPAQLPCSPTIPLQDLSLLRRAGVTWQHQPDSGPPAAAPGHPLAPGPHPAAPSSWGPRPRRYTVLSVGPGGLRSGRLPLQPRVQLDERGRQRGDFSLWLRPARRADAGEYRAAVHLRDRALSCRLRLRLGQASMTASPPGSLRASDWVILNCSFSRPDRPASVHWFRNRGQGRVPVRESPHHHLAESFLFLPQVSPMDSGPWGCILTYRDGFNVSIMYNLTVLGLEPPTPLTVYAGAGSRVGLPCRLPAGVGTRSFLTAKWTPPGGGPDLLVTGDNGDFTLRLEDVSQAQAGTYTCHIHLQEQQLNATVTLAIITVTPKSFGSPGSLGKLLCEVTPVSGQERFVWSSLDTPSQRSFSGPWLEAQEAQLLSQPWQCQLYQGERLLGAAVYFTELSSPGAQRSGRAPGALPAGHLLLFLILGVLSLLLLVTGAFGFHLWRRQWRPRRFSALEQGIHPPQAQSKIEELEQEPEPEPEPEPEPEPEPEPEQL

T2: recombinant human LAG-3-his protein (Novoprotein) (human, UniProt P18627 23-450)
T2 construct: Bought; also called huLAG-3; not shown: His tag
T2 sequence (looked up): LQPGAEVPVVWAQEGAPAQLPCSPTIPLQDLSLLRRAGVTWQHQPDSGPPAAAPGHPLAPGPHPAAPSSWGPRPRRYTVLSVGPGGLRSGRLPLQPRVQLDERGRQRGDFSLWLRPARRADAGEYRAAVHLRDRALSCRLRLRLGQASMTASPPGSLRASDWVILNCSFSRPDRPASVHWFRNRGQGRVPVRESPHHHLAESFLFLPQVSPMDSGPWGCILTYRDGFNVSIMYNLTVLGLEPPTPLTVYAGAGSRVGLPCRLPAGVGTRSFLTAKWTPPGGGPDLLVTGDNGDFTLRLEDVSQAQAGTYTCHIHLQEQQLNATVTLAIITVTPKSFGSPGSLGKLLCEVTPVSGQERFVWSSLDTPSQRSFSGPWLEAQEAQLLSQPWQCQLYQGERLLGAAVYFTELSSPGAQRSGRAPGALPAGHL

B1: mAb742 (antibody, V domains shown)
VH: QGQLQQSGAELVRPGASVTLSCKASGYTFNDYEMHWVKQTPVHGLEWIGAIDPETGGTAYNQKFKGKAILTADKSSSTAYMELRSLTSEDSAVYYCIRWGSTVFPYWGQGTLVTVS
VL: DGVLTQTPLSLPVNIGDQASISCKSTKSLLNSDGFTYLDWYLQKPGQSPQLLIYLVSNRFSGVPDRFSGSGSGTDFTLKISRVEAEDLGVYYCFQSNYLPWTFGGGTKLEIK
notes: murine hybridoma anti-LAG-3 mAb
B2: mAb744 (antibody, V domains shown)
VH: B1 VH with G2V, A16T, N30T, V37M, E54A, E82D, L83F, S101T
VL: B1 VL with G2V
notes: murine hybridoma anti-LAG-3 mAb; also called rnAb744
B3: mAb746 (antibody, V domains shown)
VH: EVQLQQSGAELVRPGASVKLSCTASDFNIKDDYMHWVKQRPEQGLDWIGWIVPENGNTEYASKFQGKATITADTSSNTAYLQLSSLTSEDTAVYYCTVYGDYWGQGTTLTVSS
VL: DIQMTQSPSSLSASLGERVSLNCRASQEISGYLSWLQQKSDGTIKRLIYAASTLDSGVPKRFSGSRSGSDYSLTISSLESEDFADYYCLQYASYPLTFGAGTKLELK
notes: murine hybridoma anti-LAG-3 mAb; also called rnAb746; 3502-mAb746
B4: mAb748 (antibody, V domains shown)
VH: EVQMQQSGAELVRPGASVKLSCTVSGFNIKDDYMHWVKQRPEQGLEWIGWIDPENGDTEYASKFQGKATITADTSSNTAYLQLNSLTSEDTAVYYCTYFDYWGQGTTLTVSS
VL: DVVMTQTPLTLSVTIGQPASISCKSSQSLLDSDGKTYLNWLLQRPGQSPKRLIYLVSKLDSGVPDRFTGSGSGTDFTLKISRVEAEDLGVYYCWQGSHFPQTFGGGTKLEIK
notes: as for B1
B5: HumAb747-59 (antibody, human IgG1, V domains shown)
VH: EVQLVQSGAEVKKPGATVKLSCTASDFNIKDDYMHWVKQRPEQGLEWIGWIVPENGNTEYASKFQGRATITADTSTNTAYLELSSLRSEDTAVYYCTVYGDYWGQGTTVTVSS
VL: DIQMTQSPSSLSASVGDRVTITCRASQEISGYLSWLQQKPGGAIKRLIYAASTLDSGVPSRFSGSRSGSDYTLTISSLQPEDFADYYCLQYASYPLTFGQGTKLELK
notes: humanized mAb747; human IgG1/kappa constant domains
B6: HumAb747-60 (antibody, human IgG1, V domains shown)
VH: B5 VH with E46D, R67K
VL: B5 VL
notes: as for B5

Numbering of substitutions follows the chain as printed.

One test has as its target T1, human LAG-3 expressed on cells. In words: cell-based or functional assay.
For B1, the “Max IL-2” value is 733 pg/mL.

For B2, the “Max IL-2” value is 612 pg/mL.

As for B3, the “Antigen-dependent Activation, Mouse IL-2, EC50” value came to 1.28 nM and the “Max IL-2” value is 654 pg/mL.

With B4, the “Max IL-2” value stood at 539 pg/mL.

For another test, the target named is T3, human LAG-3 ECD/Fc fusion protein (human).
T3 construct: also called HuLAG-3 ECD/Fc
In words: ELISA, coated huLAG-3 ECD/Fc. As for the experimental part:
The supernatants of hybridoma clones were primarily screened by ELISA. Briefly, 50 μl/well of […] human LAG-3 ECD/Fc in NaHCO₃ were directly coated in each well of 96-well plate overnight. Plates were washed 3 times with 1×PBST, 300 μl per well. After blocking with 1% BSA in PBST at 250 μl per well and incubating at room temperature for 1 hour, the hybridoma supernatants were added at 50 μl per well and incubated at 37° C. for 1 hour. After washing, an HRP-linked goat anti-mouse IgG Fc secondary antibody (Cat. No. A0168, Sigma) was added at 100 μl/well and the plates were incubated at room temperature for 1 hour. TMB reagent (InnoReagents) was used to detect and develop the ELISA signal at 100 μl/well for 15 minutes, the reaction was stopped with 1 Normal HCL. The plates were read with a plate reader (SpectraMax® M5e, Molecular Devices, USA) at a wavelength of 450 nm. The ELISA-positive antibody producer clones were further verified by FACS analysis using methods similar to Example 1.4, above, except that stable HEK 293F cell lines expressing either human LAG-3 or cynomolgus LAG-3 were used. Hybridomas producing LAG-3 binding activity were selected and further characterized in a receptor blocking assay (RBA).
A binding ELISA was performed in the same way as described in Example 7.2 above. Each purified antibody was 10-fold serially diluted. After blocking of a 96-well assay plate with wells containing immobilized LAG-3 ECD/Fc fusion protein targets, the purified antibody samples with diluted concentrations were added to wells of the assay plate. The HRP-linked anti-mouse IgG antibody (A0168, Sigma) and TMB reagent were used to detect and develop the ELISA signal, which were read on a SpectraMax M5e plate reader at wavelength of 450 nm. Curves were fitted using GraphPad software, and EC50 values were calculated. Similarly, a RBA was also performed as described in Example 7.3 with titrated, purified antibodies, and maximum inhibition percentages and IC50 values were determined.
Take B1: a half-maximal response (EC50) required 0.22 nM.

As to B2, it took 0.19 nM to reach a half-maximal effect (EC50).

As to B3, a half-maximal response (EC50) required 0.31 nM.

In the case of B4, the EC50 came out at 0.24 nM.

The next test has as its target T1, human LAG-3 expressed on cells. In words: FACS, HEK 293F huLAG-3 cells. As for the experimental part: (§1) FAGS analysis was performed using methods similar to Example 1.4, above, except that stable HEK 293F cell lines expressing either human LAG-3 cynomolgus LAG-3 were used. LAG-3 expressing cells were charged at 2×10⁴ cell per well into 96-well assay round-bottomed assay plates (Cat. No. 3799; Corning) and stained with purified anti-LAG-3 antibodies. LAG-3 antibodies were detected with AlexaFluor® Donkey anti-Mouse Ig (H+L) Highly Cross-Adsorbed Secondary Antibody (Cat. No. A21202; Invitrogen), and cell fluorescence was monitored using a flow cytometer. The data were processed by GraphPad software, and EC50 values were calculated.
On the technique in general: In flow cytometry, cells or beads pass a laser one at a time.
Molecule B1 yielded an EC50 of 2.8 nM and a Max-MFI of 103 MFI.

With B2, the EC50 stood at 9.5 nM and the Max-MFI is 135 MFI.

With B3, it took 13 nM to reach a half-maximal effect (EC50) and the Max-MFI turned out to be 121 MFI.

Turning to B4, the EC50 worked out at 13.4 nM and the Max-MFI was found to be 73.1 MFI.

The target in the next test is T4, cynomolgus LAG-3 expressed on HEK 293F cells (cynomolgus).
T4 construct: whole, on cells
In words: FACS, HEK 293F cynoLAG-3 cells. As for the experimental part:
as §1
In turn, B1 had an EC50 of 56.4 nM and a Max-MFI of 48.5 MFI.

As to B2, the EC50 was 67 nM and the Max-MFI is 37.8 MFI.

In turn, B3 registered an EC50 of 4.1 nM and a Max-MFI of 66.2 MFI.

For B4, the EC50 turned out to be 79.6 nM and the Max-MFI came out at 31.9 MFI.

The target in the next test is LAG-3 antigen (Biacore analyte of Example 7.7). In words: SPR Biacore T200, mAb captured, LAG-3 antigen analyte. As for the experimental part: For antibodies with high binding affinity in ELISA and FACS assays, as well as potent functional activity, binding affinities were determined based on measurement of binding kinetic constants in real time binding reactions using Biacore surface plasmon resonance. Briefly, the binding assay of antibody to antigen was performed using a Biacore T200 system through an antibody capture approach. Anti-mouse IgG Fc antibody was immobilized on a CM5 sensor chip according to the manufacturer's instructions. The test anti-LAG-3 murine monoclonal antibody was injected and captured by the immobilized anti-mouse IgG Fc. Then serial concentrations of LAG-3 antigen were individually injected, and the binding profile was recorded for each concentration of antigen analyte. The assay temperature was 25° C., and the association and dissociation times were 180 and 1200 seconds, respectively. The Biacore data were fitted using Biacore T200 evaluation software 1.0 according to a 1:1 binding model to calculate the association (kₒₙ) and dissociation (koff) rate constants and from these calculations the equilibrium dissociation constant (KD) was determined.
Molecule B3 displayed a Kd of 37.7 nM.

For the next test, the target named is T2, recombinant human LAG-3-his protein …. In words: BLI Octet, Ab on AHC sensor, huLAG-3-his; test group 4. As for the experimental part: All 18 humanized antibodies (Table 34) and a chimeric antibody having the parental murine VH and VL domains (mAb747c) were ranked by dissociation rate constant (koff). Briefly, antibodies were characterized for affinities and binding kinetics by Octet®RED96 biolayer interferometry (Pall ForteBio LLC). Antibodies were captured by Anti-hIgG Fc Capture (AHC) Biosensors (Pall) at a concentration of 100 nM for 30 seconds. Sensors were then dipped into running buffer (1× pH7.2 PBS, 0.05% Tween 20, 0.1% BSA) for 60 seconds to check baseline. Binding was measured by dipping sensors into a single concentration of recombinant human LAG-3-his protein (Novoprotein). Dissociation was followed by dipping sensors into running buffer for 1200 seconds. The association and dissociation curves were fitted to a 1:1 Langmuir binding model using FortéBio Data Analysis software (Pall). In each test group, the off-rates of antibodies were able to be compared with that of mAb747c. The off-rate ratios were calculated by the off-rate of antibody to that of mAb747c of its group and were compared all together. The lower the ratio was, the higher was the affinity of the antibody.
A general note: BLI is a label-free optical method that tracks binding on a fibre tip over time.
Turning to B5, the koff turned out to be 0.0012 s⁻¹ and the “off-rate ratio to that of mAb747c” value came out at 226%.

Regarding B6, the koff worked out at 0.00081 s⁻¹ and the “off-rate ratio to that of mAb747c” value was 153%.

A further test concerns the target T3, human LAG-3 ECD/Fc fusion protein. The test can be described thus: FACS RBA, huLAG-3 ECD/Fc on Raji; competitor MHC Class II. As for the experimental part: Supernatants displaying LAG-3 specific activity were tested for the ability to block LAG-3 receptor binding to MHC Class II. Raji human B cell lymphoblasts express high levels of MCH Class II and were used as binding targets for LAG-3 ECD/Fc proteins described above. Briefly, Raji cells were harvested and resuspend in FACS buffer and plated in 96-well plates (2×10⁵ cells/well). Anti-LAG-3 hybridoma supernatants were mixed with soluble LAG-3 ECD/Fc and the mixture was added to wells at a final volume of 100 μl/well. After adding the mixture to cells, the plates were incubated at room temperature for 30 minutes. After washing twice with PBS, the cells were incubated with anti-human IgG Alexa Fluor® 488 secondary antibody at 4° C. for 1 hour, washed twice with PBS, then fluorescence was measured on a flow cytometer.
Purified anti-LAG-3 antibodies also were tested in a RBA in the same manner as described in Example 7.3. Antibodies were also tested in an antigen-specific T cell activation assay, as follows: A huLAG-3 expressing murine T hybridoma cell line was generated to order by ChemPartner (Shanghai, CN). Mouse splenocytes from the same strain of mice were used as effector cells. The hybridoma expressing the huLAG-3 receptor protein is capable of binding to MHC Class II-positive mouse splenocytes, with inhibitory effect via engagement of Class II. The assay tests for anti-LAG-3 antibody-mediated reversal of the inhibitory effect, as measured by increased production of IL-2. Mouse spleenocytes were harvested from 6-8 week-old female C57BL/6 mice, red blood cells were lysed using Red Blood Cell Lysis Buffer (Sigma-Aldrich; R7757) according to the maker's instructions. Next, 50 μl T hybridoma-huLAG-3 cells (2×10⁶ cells/ml) were seeded in each well of a 96-well culture plate, and then a series of anti-LAG-3 monoclonal antibodies in solution at 50 μl/well were added and incubated at 37° C. for 30 min. Mouse splenocytes (4×10⁶ cells/ml) and the antigen (20 μg/ml) were mixed and incubated at 37° C. for 30 min. The mixture (100 μl/well) was added into each well that was already seeded with T hybridoma-huLAG-3 cells and anti-LAG-3 mAbs. The mixture of antibodies, T hybridoma-huLAG-3 cells, mouse splenocytes, and the antigen was cultured for 3 days.
For B1, the IC50 came to 3.84 nM and the “Max. Inhib. (%)” value came out at 96.5%.

With B2, the IC50 is 10.8 nM and the “Max. Inhib. (%)” value is 96.5%.

As to B3, the IC50 was 2.92 nM and the “Max. Inhib. (%)” value came to 96.2%.

On to B4, for which the IC50 worked out at 4.8 nM and the “Max. Inhib. (%)” value is 96.1%.

In general, EC50 refers to the concentration needed to bring the measured effect to its halfway point. What is called Kd is a measure of binding affinity in units of concentration. The low end stands for higher affinity, the high end for lower affinity. A word on the koff: it is a measure of how fast the partners let go of each other. The term IC50 denotes the concentration at which inhibition is half-maximal. A higher IC50 goes with weaker potency.
